No end group written: not given here.
Target: T1, His-tagged SAR1A^(Δ2–17, H79G) (human, UniProt Q9NR31 1-198, Δ2–17 | H79G)
T1 construct: SAR1A, human, GTPase-defective H79G, N-terminal helix (residues 2-17) deleted; also called SAR1A^(Δ2–17, H79G)-His; His-tagged SAR1A(H79G) deleted of its N-terminal helix; source: purified, as described previously
Assay: pull-down; peptide-binding assay: polyR peptide coupled through its C-terminal cysteine to thiopyridone-Sepharose 6B beads (5 nmol peptide); 2 μg purified His-tagged SAR1A preincubated with 500 μM GTPγS; HK buffer (100 mM KCl, 20 mM Hepes, pH 7.2), 1 h at 4 °C; immunoblot
Conditions: both partners purified

T1 sequence (Q9NR31 other isoform, or with tags, fused parts or gaps Δ2–17 | H79G | Δ2–17 | H79G | H79G H79G): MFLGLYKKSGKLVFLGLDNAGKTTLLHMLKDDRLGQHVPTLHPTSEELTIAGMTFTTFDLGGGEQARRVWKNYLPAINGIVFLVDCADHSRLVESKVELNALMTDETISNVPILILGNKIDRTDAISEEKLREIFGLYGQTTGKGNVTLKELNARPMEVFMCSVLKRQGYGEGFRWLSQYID

- binding result: binds
B1: synthetic polyR peptide of EGFR (RRRHIVRKRTLRRC) (peptide)
peptide: RRRHIVRKRTLRRC(Sepharose 6B)
notes: EGFR, juxtamembrane region of the cytosolic domain, amino acid number 669-681; added C-terminal cysteine residue used for coupling to the beads; also called polyR peptides; source: synthetic peptide, bought: GenScript

Source: article PMC12221741, “WT EGFR and the oncogenic mutant EGFR (L858R) employ distinct mechanisms for export from the endoplasmic reticulum, a process critical for their activation” (The Journal of Biological Chemistry, 2025)
